Where two headings read alike, the source gives them in different places.
Key:
Env of SHIV-1157ipd3N4 = Env of SHIV-1157ipd3N4 (SHIV); assay: cell-based or functional assay
Env of B.MN virus = Env of B.MN virus (HIV-1); assay: cell-based or functional assay
Env of SHIV SF162P3 = Env of SHIV SF162P3 (SHIV); assay: cell-based or functional assay
Env of AE.CM244 virus = Env of AE.CM244 virus (HIV-1); assay: cell-based or functional assay
Env of SHIV-1157ipEL-p = Env of SHIV-1157ipEL-p (SHIV); assay: cell-based or functional assay
Env of SHIV-SF162P4 = Env of SHIV-SF162P4 (SHIV); assay: cell-based or functional assay
Env of AE.92TH023 virus = Env of AE.92TH023 virus (HIV-1); assay: cell-based or functional assay
Env of SHIV-BaL = Env of SHIV-BaL (SHIV); assay: cell-based or functional assay
G.con gp140CF [1] = assay: ELISA, OD405 at 10 ug/ml
AE.con gp140CF [2] = assay: ELISA, OD405 at 10 ug/ml
B.040 gp140C [3] = assay: ELISA, OD405 at 10 ug/ml
A.9004SS V1/V2 tags [4] = biological target: T1, A.9004SS V1/V2 tags; assay: ELISA, OD405 at 10 ug/ml
T1 V1V2 tags construct: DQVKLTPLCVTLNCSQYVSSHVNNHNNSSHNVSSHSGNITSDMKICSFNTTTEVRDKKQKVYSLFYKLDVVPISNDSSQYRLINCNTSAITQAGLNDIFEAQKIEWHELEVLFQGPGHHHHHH

C.1086 gp140 [5] = biological target: T2, C.1086 gp140; assay: ELISA, OD405 at 10 ug/ml
T2 construct: also called C.1086gp140C

D.9009SA V1/V2 tags [6] = assay: ELISA, OD405 at 10 ug/ml
B.Case A2 V1/V2 Tags [7] = biological target: T3, B.Case A2 V1/V2 Tags; assay: ELISA, OD405
T3 Env construct: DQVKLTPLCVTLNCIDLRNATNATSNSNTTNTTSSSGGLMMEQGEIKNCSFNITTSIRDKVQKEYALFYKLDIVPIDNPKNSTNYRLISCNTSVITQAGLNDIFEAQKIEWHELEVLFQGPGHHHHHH

B.63521_V1V2 Tags = biological target: T4, B.63521_V1V2 Tags; assay: ELISA, OD405
T4 Env construct: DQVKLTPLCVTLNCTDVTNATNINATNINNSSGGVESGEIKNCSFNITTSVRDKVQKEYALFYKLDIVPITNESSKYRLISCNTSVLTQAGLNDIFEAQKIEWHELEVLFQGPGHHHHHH

G.con gp140CF [8] = biological target: T5, G.con gp140CF; assay: ELISA, OD405
T5 construct: also called G.con.env03 gp140CF

D.9009SA V1V2 Tags = biological target: T6, D.9009SA V1V2 Tags; assay: ELISA, OD405
T6 Env construct: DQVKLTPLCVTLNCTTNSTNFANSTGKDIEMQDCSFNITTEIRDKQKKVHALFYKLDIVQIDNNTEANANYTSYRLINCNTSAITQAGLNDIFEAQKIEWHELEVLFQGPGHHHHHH

B.HXB/BAL gp140CFI = biological target: T7, B.HXB/BAL gp140CFI (HIV-1, UniProt P04578 33-680); assay: ELISA, OD405
T7 construct: also called B.HxB/Ba gp140 CFI

B.con gp140CF [9] = biological target: T8, B.con gp140CF; assay: ELISA, OD405
T8 construct: also called B.con.env03 gp140CF

AE.con gp140CF [10] = biological target: T9, AE.con gp140CF; assay: ELISA, OD405
T9 construct: also called AE.con.env03 gp140CF

A.9004SS V1V2 Tags = biological target: T10, A.9004SS V1V2 Tags; assay: ELISA, OD405
T10 Env construct: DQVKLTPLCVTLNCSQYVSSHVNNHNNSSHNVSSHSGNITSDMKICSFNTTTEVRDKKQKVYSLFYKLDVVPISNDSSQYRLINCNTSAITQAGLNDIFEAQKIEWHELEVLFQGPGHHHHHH

C.1086 gp140 [11] = biological target: T11, C.1086 gp140; assay: ELISA, OD405
T11 construct: also called C.1086gp140C

Con 6 gp120 = assay: ELISA, OD405
B.63521 gp140C = assay: ELISA, OD405
B.62357 140C = biological target: T12, B.62357 140C; assay: ELISA, OD405
T12 construct: also called B.62357 gp140C

B. 681-7 gp140C = assay: ELISA, OD405
C.1086 gp120 = C.1086 gp120 (HIV-1); assay: ELISA, OD405
B.040 gp140C [12] = assay: ELISA, OD405
B. 684-6 gp140C = assay: ELISA, OD405
D.9009SA V1/V2 tags [13] = assay: ELISA, OD405 at 10 ug/ml; remark: listed apart in the source
B.con gp140CF [14] = assay: ELISA, OD405 at 10 ug/ml
A.Q23 V1V2 tags = A.Q23 V1V2 tags (HIV-1); assay: ELISA, OD405 at 10 ug/ml
AE.A244 V1V2 Tags = AE.A244 V1V2 Tags (HIV-1); assay: ELISA, OD405 at 10 ug/ml
A.9004SS V1/V2 tags [15] = biological target: T1, A.9004SS V1/V2 tags; assay: ELISA, OD405 at 10 ug/ml
B.Case A2 V1/V2 tags [16] = assay: ELISA, OD405 at 10 ug/ml
D.9009SA V1/V2 tags [17] = assay: ELISA, OD405 at 10 ug/ml; remark: listed apart in the source

B1: CH59 (antibody, V domains shown)
VH: EVQLVESGGGLVQPGRSLRLSCAASGFTFDDGAMHWVRQAPGKGLEWVSGISWNSNIIAYADSVKGRFTISRDNAKNSLYLEMNSLRVEDTALYYCAKDSPRGELPLNYWGQGTLVTVSS
VL: SYELTQPPSVSVSPGQTARITCSGDALPKNYAYWYQQKSGQAPVLVIYEDSKRPSGIPERFSGSSSGTMATLTISGAQVEDEADYYCYSTDSSGNHRVFGGGTKLTVL
notes: also called mAb CH59
EC50, neutralization of SHIV-1157ipd3N4 (Env of SHIV-1157ipd3N4): > 50 µg/mL | EC50, neutralization of B.MN (Env of B.MN virus): > 50 µg/mL | EC50, neutralization of SHIV SF162P3 (Env of SHIV SF162P3): > 50 µg/mL | EC50, neutralization of AE.CM244 (Env of AE.CM244 virus): > 50 µg/mL | EC50, neutralization of SHIV-1157ipEL-p (Env of SHIV-1157ipEL-p): 24.6 µg/mL | EC50, neutralization of SHIV-SF162P4 (Env of SHIV-SF162P4): > 50 µg/mL | EC50, neutralization of AE.TH023 (Env of AE.92TH023 virus): 12.1 µg/mL | EC50, neutralization of SHIV-BaL (Env of SHIV-BaL): > 50 µg/mL | binding result (G.con gp140CF [1]): no binding (tested: 10 ug/ml) | binding result (AE.con gp140CF [2]): binds | binding result (B.040 gp140C [3]): no binding (tested: 10 ug/ml) | binding result (A.9004SS V1/V2 tags [4]): binds | binding result (C.1086 gp140 [5]): binds | binding result (D.9009SA V1/V2 tags [6]): binds

B2: CH59 reverted unmutated ancestor antibody (antibody, V domains shown)
VH: EVQLVESGGGLVQPGRSLRLSCAASGFTFDDYAMHWVRQAPGKGLEWVSGISWNSGSIGYADSVKGRFTISRDNAKNSLYLQMNSLRAEDTALYYCAKDSPRGELPFDYWGQGTLVTVSS
VL: SYELTQPPSVSVSPGQTARITCSGDALPKKYAYWYQQKSGQAPVLVIYEDSKRPSGIPERFSGSSSGTMATLTISGAQVEDEADYYCYSTDSSGNHRVFGGGTKLTVL
notes: also called CH59 RUA; CH59_RUA
binding result (B.Case A2 V1/V2 Tags [7]): no binding (tested: 10 ug/ml) | binding result (B.63521_V1V2 Tags): no binding (tested: 10 ug/ml) | binding result (G.con gp140CF [8]): no binding (tested: 10 ug/ml) | binding result (D.9009SA V1V2 Tags): no binding (tested: 10 ug/ml) | binding result (B.HXB/BAL gp140CFI): no binding (tested: 10 ug/ml) | binding result (B.con gp140CF [9]): no binding (tested: 10 ug/ml) | binding result (AE.con gp140CF [10]): no binding (tested: 10 ug/ml) | binding result (A.9004SS V1V2 Tags): no binding (tested: 10 ug/ml) | binding result (C.1086 gp140 [11]): no binding (tested: 10 ug/ml) | binding result (Con 6 gp120): no binding (tested: 10 ug/ml) | binding result (B.63521 gp140C): no binding (tested: 10 ug/ml) | binding result (B.62357 140C): no binding (tested: 10 ug/ml) | binding result (B. 681-7 gp140C): no binding (tested: 10 ug/ml) | binding result (C.1086 gp120): no binding (tested: 10 ug/ml) | binding result (B.040 gp140C [12]): no binding (tested: 10 ug/ml) | binding result (B. 684-6 gp140C): no binding (tested: 10 ug/ml)

B3: 697D (antibody, V domains shown)
VH: QVQLVQSGAEVKKPGSSVKVSCKASGGNFNTYTISWVRQAPGQGLEWMGRIIPIFGIVNPAQKFPGRVTINVDKSTNTAYMELSSLRSEDTAVYYCATSGVGLHFGYFDYWGQGTQVTVSS
VL: QSVLTQPPSVSGAPGQRVTISCTGSSSNIGAHYDVHWYQQLPGTAPKLLIYGNSNRPSGVPDRFSGSKSGTSASLAITGLQAEDEADYYCQSYDSSLSGYVFGTGTKVTVL
notes: also called mAb 697D; V2 conformational mAb 697D
binding result (D.9009SA V1/V2 tags [13]): no binding (tested: 10 ug/ml)

B4: PG16 reverted unmutated ancestor antibody (antibody, V domains shown)
VH: QVQLVESGGGVVQPGRSLRLSCAASGFTFSSYGMHWVRQAPGKGLEWVAVISYDGSNKYYADSVKGRFTISRDNSKNTLYLQMNSLRAEDTAVYYCAREAGGPIWHDDVKYYDFNDGYYYYYYMDVWGKGTTVTVSS
VL: QSALTQPASVSGSPGQSITISCTGTSSDVGSYNLVSWYQQHPGKAPKLMIYEVSKRPSGVSNRFSGSKSGNTASLTISGLQAEDEADYYCCSLTDRSHRIFGGGTKLTVL
notes: also called PG16 RUA; PG16_RUA
binding result (B.con gp140CF [14]): no binding (tested: 10 ug/ml) | binding result (A.Q23 V1V2 tags): no binding (tested: 10 ug/ml) | binding result (AE.A244 V1V2 Tags): no binding (tested: 10 ug/ml) | binding result (A.9004SS V1/V2 tags [15]): no binding (tested: 10 ug/ml) | binding result (B.Case A2 V1/V2 tags [16]): no binding (tested: 10 ug/ml) | binding result (D.9009SA V1/V2 tags [17]): no binding (tested: 10 ug/ml)
